Blank lines part the entries; values can stand above or below the binder they belong to.
Columns and labels:
[1] = biological target: M44-modified T NTAA target peptides; experiment: encoding assay; P2 D;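 note: fraction of recording tags encoded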
[2] = biological target: M44-modified S NTAA target peptides; experiment: encoding assay; P2 D
[3] = biological target: M44-modified V NTAA target peptides; experiment: encoding assay; P2 D;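 note: fraction of recording tags encoded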
[4] = biological target: M44-modified P NTAA target peptides; experiment: encoding assay; P2 D;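 note: fraction of recording tags encoded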
[5] = biological target: M44-modified H NTAA target peptides; experiment: encoding assay; P2 D;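 note: fraction of recording tags encoded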
[6] = biological target: M44-modified A NTAA target peptides (M44-A-P2-peptide); experiment: encoding assay; P2 G;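 note: fraction of recording tags encoded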
[7] = biological target: M44-modified S NTAA target peptides; experiment: encoding assay; P2 G
[8] = biological target: M44-modified N NTAA target peptides; experiment: encoding assay; P2 G
[9] = biological target: M44-modified P NTAA target peptides; experiment: encoding assay; P2 G;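 note: fraction of recording tags encoded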
[10] = biological target: M44-modified D NTAA target peptides; experiment: encoding assay; P2 G;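 note: fraction of recording tags encoded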
[11] = biological target: M44-modified H NTAA target peptides; experiment: encoding assay; P2 G;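 note: fraction of recording tags encoded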
[12] = biological target: M17-modified Y NTAA target peptides (M17-Y-P2-peptide); experiment: Gini coefficient of P2 tolerance from multiplex encoding heatmap
[13] = biological target: M17-modified F NTAA target peptides; experiment: encoding assay; P2 D;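 note: fraction of recording tags encoded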
[14] = biological target: M17-modified H NTAA target peptides; experiment: encoding assay; P2 D;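 note: fraction of recording tags encoded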
[15] = biological target: M17-modified S NTAA target peptides; experiment: encoding assay; P2 D;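 note: fraction of recording tags encoded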
[16] = biological target: M17-modified A NTAA target peptides; experiment: encoding assay; P2 D;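 note: fraction of recording tags encoded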
[17] = biological target: M17-modified D NTAA target peptides; experiment: encoding assay; P2 D;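 note: fraction of recording tags encoded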
[18] = biological target: M17-modified W NTAA target peptides; experiment: encoding assay; P2 D;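 note: fraction of recording tags encoded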
[19] = biological target: M17-modified L NTAA target peptides; experiment: encoding assay; P2 D;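 note: fraction of recording tags encoded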
[20] = biological target: M17-modified E NTAA target peptides; experiment: encoding assay; P2 D;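 note: fraction of recording tags encoded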
[21] = biological target: M17-modified P NTAA target peptides; experiment: encoding assay; P2 D;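 note: fraction of recording tags encoded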
[22] = biological target: M17-modified F NTAA target peptides; experiment: encoding assay; P2 G;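 note: fraction of recording tags encoded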
[23] = biological target: M17-modified H NTAA target peptides; experiment: encoding assay; P2 G;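 note: fraction of recording tags encoded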
[24] = biological target: M17-modified S NTAA target peptides; experiment: encoding assay; P2 G;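 note: fraction of recording tags encoded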
[25] = biological target: M17-modified G NTAA target peptides; experiment: encoding assay; P2 G;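 note: fraction of recording tags encoded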
[26] = biological target: M17-modified A NTAA target peptides; experiment: encoding assay; P2 G;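 note: fraction of recording tags encoded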
[27] = biological target: M17-modified T NTAA target peptides; experiment: encoding assay; P2 G;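 note: fraction of recording tags encoded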
[28] = biological target: M17-modified Q NTAA target peptides; experiment: encoding assay; P2 G;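 note: fraction of recording tags encoded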
[29] = biological target: M17-modified D NTAA target peptides; experiment: encoding assay; P2 G;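 note: fraction of recording tags encoded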
[30] = biological target: M17-modified N NTAA target peptides; experiment: encoding assay; P2 G;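 note: fraction of recording tags encoded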
[31] = biological target: M17-modified Y NTAA target peptides (M17-Y-P2-peptide); experiment: encoding assay; P2 G;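 note: fraction of recording tags encoded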
[32] = biological target: M17-modified L NTAA target peptides; experiment: encoding assay; P2 G;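 note: fraction of recording tags encoded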
[33] = biological target: M17-modified M NTAA target peptides; experiment: encoding assay; P2 G;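 note: fraction of recording tags encoded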
[34] = biological target: M17-modified E NTAA target peptides; experiment: encoding assay; P2 G;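 note: fraction of recording tags encoded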
[35] = biological target: M17-modified V NTAA target peptides; experiment: encoding assay; P2 G;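 note: fraction of recording tags encoded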
[36] = biological target: M17-modified I NTAA target peptides; experiment: encoding assay; P2 G;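 note: fraction of recording tags encoded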
[37] = biological target: M17-modified P NTAA target peptides; experiment: encoding assay; P2 G;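 note: fraction of recording tags encoded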
[38] = biological target: M17-modified F NTAA target peptides; experiment: encoding assay; P2 L;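 note: fraction of recording tags encoded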
[39] = biological target: M17-modified H NTAA target peptides; experiment: encoding assay; P2 L;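 note: fraction of recording tags encoded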
[40] = biological target: M17-modified S NTAA target peptides; experiment: encoding assay; P2 L;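 note: fraction of recording tags encoded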
[41] = biological target: M17-modified G NTAA target peptides; experiment: encoding assay; P2 L;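 note: fraction of recording tags encoded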
[42] = biological target: M17-modified A NTAA target peptides; experiment: encoding assay; P2 L;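 note: fraction of recording tags encoded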
[43] = biological target: M17-modified T NTAA target peptides; experiment: encoding assay; P2 L;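 note: fraction of recording tags encoded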
[44] = biological target: M17-modified Q NTAA target peptides; experiment: encoding assay; P2 L;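 note: fraction of recording tags encoded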
[45] = biological target: M17-modified D NTAA target peptides; experiment: encoding assay; P2 L;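 note: fraction of recording tags encoded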
[46] = biological target: M17-modified N NTAA target peptides; experiment: encoding assay; P2 L;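 note: fraction of recording tags encoded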
[47] = biological target: M17-modified W NTAA target peptides; experiment: encoding assay; P2 L;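 note: fraction of recording tags encoded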
[48] = biological target: M17-modified Y NTAA target peptides (M17-Y-P2-peptide); experiment: encoding assay; P2 L;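 note: fraction of recording tags encoded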
[49] = biological target: M17-modified L NTAA target peptides; experiment: encoding assay; P2 L;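 note: fraction of recording tags encoded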
[50] = biological target: M17-modified M NTAA target peptides; experiment: encoding assay; P2 L;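 note: fraction of recording tags encoded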
[51] = biological target: M17-modified E NTAA target peptides; experiment: encoding assay; P2 L;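 note: fraction of recording tags encoded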
[52] = biological target: M17-modified V NTAA target peptides; experiment: encoding assay; P2 L;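 note: fraction of recording tags encoded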
[53] = biological target: M17-modified I NTAA target peptides; experiment: encoding assay; P2 L;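 note: fraction of recording tags encoded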
[54] = biological target: M17-modified P NTAA target peptides; experiment: encoding assay; P2 L;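 note: fraction of recording tags encoded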

B1: engineered M44-A binder (SEQ ID NO: 42) (designed binder, not shown: small tags and cut ends; large carriers)
chain: QVSVQPNFQQDKFLGRWFVAGLASNSSWDREKVAALSGAKMVVAPATDGGLNVTRTMLRKNQCETYTGLLQPAGSLGSYSWRSPHPGSTGSESVVETDYDQYALVYGQGSKGPGEDLRAAALWSRTQTPRAELKEKFTAFSKAQGFTEDTIVFLPQTDKCMTEQ
encoding yield [1]: 0.01
encoding yield [2]: 0.01
encoding yield [3]: 0.03
encoding yield [4]: 0.01
encoding yield [5]: 0.01
encoding yield [6]: 0.07
encoding yield [7]: 0.01
encoding yield [8]: 0.01
encoding yield [9]: 0.02
encoding yield [10]: 0.01
encoding yield [11]: 0.02

B2: engineered M17-Y binder (SEQ ID NO: 61) (designed binder, not shown: small tags and cut ends; large carriers)
chain: TVPDRSEIAGKWYVVALASNTEFYLREKDWVKSAMARISFLGEDELKVSSAVPSPNGCYKVERTWKKTSDDGEVYNSRAAKLKVEVLDTDYKSYAVIYATRVKDGRTDHQMILYSRSPEVSPAATAIFRKLAGERNYTDEMVAMLPRQEECTVDEV
P2 score [12]: 0.225
encoding yield [13]: 0.04
encoding yield [14]: 0.01
encoding yield [15]: 0.01
encoding yield [16]: 0.02
encoding yield [17]: 0.01
encoding yield [18]: 0.02
encoding yield [19]: 0.02
encoding yield [20]: 0.02
encoding yield [21]: 0.01
encoding yield [22]: 0.06
encoding yield [23]: 0.03
encoding yield [24]: 0.01
encoding yield [25]: 0.01
encoding yield [26]: 0.01
encoding yield [27]: 0.03
encoding yield [28]: 0.02
encoding yield [29]: 0.01
encoding yield [30]: 0.01
encoding yield [31]: 0.11
encoding yield [32]: 0.02
encoding yield [33]: 0.01
encoding yield [34]: 0.02
encoding yield [35]: 0.02
encoding yield [36]: 0.03
encoding yield [37]: 0.01
encoding yield [38]: 0.04
encoding yield [39]: 0.02
encoding yield [40]: 0.03
encoding yield [41]: 0.02
encoding yield [42]: 0.02
encoding yield [43]: 0.01
encoding yield [44]: 0.02
encoding yield [45]: 0.02
encoding yield [46]: 0.03
encoding yield [47]: 0.01
encoding yield [48]: 0.17
encoding yield [49]: 0.06
encoding yield [50]: 0.03
encoding yield [51]: 0.03
encoding yield [52]: 0.02
encoding yield [53]: 0.01
encoding yield [54]: 0.02

Continued, in another order:

encoding yield [13]: 0.05
encoding yield [14]: 0.02
encoding yield [15]: 0.01
encoding yield [16]: 0.03
encoding yield [17]: 0.02
encoding yield [18]: 0.03
encoding yield [19]: 0.03
encoding yield [20]: 0.02
encoding yield [21]: 0.02
encoding yield [22]: 0.11
encoding yield [23]: 0.03
encoding yield [24]: 0.01
encoding yield [25]: 0.01
encoding yield [26]: 0.02
encoding yield [27]: 0.05
encoding yield [28]: 0.02
encoding yield [29]: 0.02
encoding yield [30]: 0.01
encoding yield [31]: 0.18
encoding yield [32]: 0.03
encoding yield [33]: 0.02
encoding yield [34]: 0.02
encoding yield [35]: 0.03
encoding yield [36]: 0.05
encoding yield [37]: 0.02
encoding yield [38]: 0.08
encoding yield [39]: 0.04
encoding yield [40]: 0.03
encoding yield [41]: 0.02
encoding yield [42]: 0.02
encoding yield [43]: 0.02
encoding yield [44]: 0.03
encoding yield [45]: 0.02
encoding yield [46]: 0.03
encoding yield [47]: 0.04
encoding yield [48]: 0.29
encoding yield [49]: 0.12
encoding yield [50]: 0.03
encoding yield [51]: 0.03
encoding yield [52]: 0.04
encoding yield [53]: 0.06
encoding yield [54]: 0.03
B3: upgraded binder after additional maturation round (SEQ ID NO: 62) (designed binder, not shown: small tags and cut ends; large carriers)
chain: TVPDRSEIAGKWYVVALASNTEFYLRGKDRVKSAMVRISFQGEDELKVSSAVPSPNGCYKVERTWKKTSDDGEVYNSRAAKLKVEVLDTDYKSYAVIYATRVKDRRTDHQMILYSRSPDVSPAATAIFRKLAGERNYTDEMVAMLPRQEECTVDEV
P2 score [12]: 0.128

encoding yield [1]: 0.01
encoding yield [2]: 0.01
encoding yield [3]: 0.03
encoding yield [4]: 0.01
encoding yield [5]: 0.01
encoding yield [6]: 0.01
encoding yield [7]: 0.01
encoding yield [8]: 0.01
encoding yield [9]: 0.02
encoding yield [10]: 0.01
encoding yield [11]: 0.02
B4: engineered M44-L binder (SEQ ID NO: 31) (designed binder, not shown: small tags and cut ends; large carriers)
chain: QDSTQNLIPAPPLISVPLQPGFWTERFQGRWFLVGFAGNAVQKERQSRLTMQSLILELQEDNSYNITAINVRGQGCRYIISTLVPSSRPGQFTLGNIHSYPQIQSLDVQVADTDYDQFAMVFLQGTSENKQYFEVALAGRTKGLSDELKERFVSFAKSLGLKDNNIVFSVPTDQCIDN
